Read-outs that look alike come from different tables or passages of the source. Non-standard residues stand in square brackets, D forms with d. No end group written: not given here. *: point of attachment. Biotin = O=C1N[C@H]2[C@H](CS[C@H]2CCCCC(=O)*)N1; pT = C[C@@H](OP(=O)(O)O)[C@H](N)C(=O)O; ttds = NCCCOCCOCCOCCCNC(=O)CCC(=O)*

These results are taken from paper PMC7961048 (2021).

Common to all, as to experiment: FP
Assay [1] concerns the target T1, full-length human 14-3-3τ fused to the C terminus of MBP (human, UniProt P27348 1-245).
T1 chain: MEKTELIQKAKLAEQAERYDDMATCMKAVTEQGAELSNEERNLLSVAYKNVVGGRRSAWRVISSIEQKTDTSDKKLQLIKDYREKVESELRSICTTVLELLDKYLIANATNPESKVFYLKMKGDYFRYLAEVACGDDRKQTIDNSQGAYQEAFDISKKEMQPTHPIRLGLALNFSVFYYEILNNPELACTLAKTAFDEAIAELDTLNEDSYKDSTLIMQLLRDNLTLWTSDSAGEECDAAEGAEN

Assay [2] deals with T2, full-length human 14-3-3ζ fused to the C terminus of MBP (human, UniProt P63104 1-245).
T2 chain: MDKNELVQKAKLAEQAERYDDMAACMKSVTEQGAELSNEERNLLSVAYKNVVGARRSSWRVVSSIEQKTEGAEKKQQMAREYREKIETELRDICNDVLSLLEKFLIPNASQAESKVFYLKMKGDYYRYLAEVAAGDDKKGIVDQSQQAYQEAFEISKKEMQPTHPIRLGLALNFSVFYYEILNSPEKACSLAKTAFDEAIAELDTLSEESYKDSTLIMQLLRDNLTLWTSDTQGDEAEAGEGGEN

The target in assay [3] is T3, full-length human 14-3-3ε fused to the C terminus of MBP (human, UniProt P62258 1-255).
T3 chain: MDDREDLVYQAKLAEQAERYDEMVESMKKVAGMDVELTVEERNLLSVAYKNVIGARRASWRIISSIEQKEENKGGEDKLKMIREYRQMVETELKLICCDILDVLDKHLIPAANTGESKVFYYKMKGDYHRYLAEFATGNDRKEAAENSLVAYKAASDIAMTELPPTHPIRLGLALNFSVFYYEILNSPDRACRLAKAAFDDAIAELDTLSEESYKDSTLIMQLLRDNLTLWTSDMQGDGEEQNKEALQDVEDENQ

In assay [4] the target is T4, full-length human 14-3-3β fused to the C terminus of MBP (human, UniProt P31946 1-246).
T4 chain: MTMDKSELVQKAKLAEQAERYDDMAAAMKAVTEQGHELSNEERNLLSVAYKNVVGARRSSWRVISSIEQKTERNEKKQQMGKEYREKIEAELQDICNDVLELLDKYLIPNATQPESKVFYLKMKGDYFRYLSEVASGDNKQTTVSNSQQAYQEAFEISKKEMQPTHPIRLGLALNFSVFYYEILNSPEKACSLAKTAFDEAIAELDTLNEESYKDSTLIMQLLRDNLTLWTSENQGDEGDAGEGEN

In assay [5] the target is T5, unfused 14-3-3β devoid of the flexible C-terminal tail (human).
T5 chain: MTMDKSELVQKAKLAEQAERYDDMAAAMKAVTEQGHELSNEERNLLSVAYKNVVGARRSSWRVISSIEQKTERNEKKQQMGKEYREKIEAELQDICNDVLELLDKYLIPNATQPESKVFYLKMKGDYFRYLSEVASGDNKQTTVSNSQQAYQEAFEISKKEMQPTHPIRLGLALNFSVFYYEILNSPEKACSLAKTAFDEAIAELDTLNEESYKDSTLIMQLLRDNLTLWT

In assay [6] the target is T6, unfused 14-3-3ε devoid of the flexible C-terminal tail (human).
T6 chain: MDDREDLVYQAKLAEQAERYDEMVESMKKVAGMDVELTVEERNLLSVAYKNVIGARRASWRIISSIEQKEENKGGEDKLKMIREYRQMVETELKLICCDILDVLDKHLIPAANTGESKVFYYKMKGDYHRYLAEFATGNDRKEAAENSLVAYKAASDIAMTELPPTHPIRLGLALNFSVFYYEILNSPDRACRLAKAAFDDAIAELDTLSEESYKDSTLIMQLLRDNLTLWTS

Assay [7] has as its target T1, full-length human 14-3-3τ fused to the ….
In assay [8] the target is T7, full-length human 14-3-3γ fused to the C terminus of MBP (human, UniProt P61981 1-247).
T7 chain: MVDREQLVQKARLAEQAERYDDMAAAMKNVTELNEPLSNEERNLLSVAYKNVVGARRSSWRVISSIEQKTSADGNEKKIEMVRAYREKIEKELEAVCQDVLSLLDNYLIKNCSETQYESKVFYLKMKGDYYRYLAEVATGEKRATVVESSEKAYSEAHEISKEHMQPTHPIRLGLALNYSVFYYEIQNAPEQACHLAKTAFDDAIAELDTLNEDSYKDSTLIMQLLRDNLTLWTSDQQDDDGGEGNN

Assay [9] deals with T2, full-length human 14-3-3ζ fused to the ….
Assay [10] has as its target T8, unfused 14-3-3τ devoid of the flexible C-terminal tail (human).
T8 chain: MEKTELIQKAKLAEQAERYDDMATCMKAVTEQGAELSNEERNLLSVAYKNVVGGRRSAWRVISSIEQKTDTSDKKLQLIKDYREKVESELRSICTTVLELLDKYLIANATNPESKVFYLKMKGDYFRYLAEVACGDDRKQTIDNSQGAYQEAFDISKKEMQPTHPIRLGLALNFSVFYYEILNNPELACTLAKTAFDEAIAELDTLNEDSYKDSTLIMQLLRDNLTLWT

In assay [11] the target is T4, full-length human 14-3-3β fused to the ….

B1: HPV16 E6 phospho-PBM peptide p16E6 (peptide)
peptide: {Biotin-ttds}-SSRTRRE[pT]QL
With B1, the Kd in assay [1] is 144 µM; in [2], 73.6 µM; in assay [3], more than 300 µM; in [4] it was 159 µM; in [5], 148 µM; in [6] it was 186 µM. The Kd was 144 µM in [7]; 37.2 µM in assay [8]; 73.6 µM in assay [9]; 135 µM in assay [10]; 159 µM in [11].

B2: HPV18 E6 phospho-PBM peptide p18E6 (peptide)
peptide: {Biotin-ttds}-RLQRRRE[pT]QV
For B2, the Kd in assay [1] amounted to 37.8 µM; in [2], 22.4 µM; in assay [3], 101 µM; in assay [4] it was 42.2 µM; in [5], 42.3 µM; in assay [6], 66.2 µM. Besides, the Kd in assay [7] was 37.8 µM; in [8], 11.1 µM; in assay [9] it was 22.4 µM; in [10] it was 42.3 µM; in assay [11], 42.2 µM.
